Laboratory results: US20220372200

T1: poly[(KLAAm10-co-DMA30)-b-(DAAm280-co-DMA120)] (NP3)
T1 sequence: KLAKLAKKLAKLAK

T2: poly[(KLAAm10-co-DMA10)-b-(DAAm280-co-DMA120)] (NP5)
T2 sequence: KLAKLAKKLAKLAK

T3: poly[(KLAAm10-co-DMA10)-b-(DAAm140-co-DMA60)] (NP4)
T3 sequence: KLAKLAKKLAKLAK

T4: poly[(KLAAm10-co-DMA30)-b-(DAAm140-co-DMA60)] (NP2)
T4 sequence: KLAKLAKKLAKLAK

T5: KLA peptide acrylamide monomer (KLAAm)
T5 sequence: KLAKLAKKLAKLAK

T6: poly(KLAAm10-co-DMA10)
T6 sequence: KLAKLAKKLAKLAK

T7: poly[(KLAAm10-co-DMA30)-b-(DAAm70-co-DMA30)] (NP1)
T7 sequence: KLAKLAKKLAKLAK

T8: poly(PepAm21-co-DMA71) (P4)
T8 chain: GPLGLAGG


Legend:
[1] = test system: T1, poly[(KLAAm10-co-DMA30)-b-(DAAm280-co-DMA120)] (NP3)
[2] = test system: T2, poly[(KLAAm10-co-DMA10)-b-(DAAm280-co-DMA120)] (NP5)
[3] = test system: T3, poly[(KLAAm10-co-DMA10)-b-(DAAm140-co-DMA60)] (NP4)
[4] = test system: T4, poly[(KLAAm10-co-DMA30)-b-(DAAm140-co-DMA60)] (NP2)
[5] = test system: T5, KLA peptide acrylamide monomer (KLAAm)
poly(KLAAm10-co-DMA10) = test system: T6, poly(KLAAm10-co-DMA10)
[6] = test system: T7, poly[(KLAAm10-co-DMA30)-b-(DAAm70-co-DMA30)] (NP1)
[7] = target: T8, poly(PepAm21-co-DMA71) (P4)

| Molecule | percent of KLA peptide left uncleaved after 1 h (HPLC) [1] | percent of KLA peptide left uncleaved after 1 h (HPLC) [2] | percent of KLA peptide left uncleaved after 1 h (HPLC) [3] | percent of KLA peptide left uncleaved after 1 h (HPLC) [4] | percent cleavage by HPLC [5] | percent of side-chain peptides cleaved by HPLC (poly(KLAAm10-co-DMA10)) | percent of KLA peptide left uncleaved after 1 h (HPLC) [6] | cleavage of side-chain peptides monitored by HPLC [7] |
| --- | --- | --- | --- | --- | --- | --- | --- | --- |
| trypsin | more than 70% of KLA peptide survived during the first hour of cleavage | more than 70% of KLA peptide survived during the first hour of cleavage | more than 70% of KLA peptide survived during the first hour of cleavage | more than 70% of KLA peptide survived during the first hour of cleavage | the KLA peptide underwent fast degradation, reaching 100% cleavage within 1 h | more than 90% of the side-chain peptides were cleaved within 1 h | more than 70% of KLA peptide survived during the first hour of cleavage | – |
| thermolysin (protein) ITGTSTVGVGRGVLGDQKNINTTYSTYYYLQDNTRGNGIFTYDAKYRTTLPGSLWADADNQFFASYDAPAVDAHYYAGVTYDYYKNVHNRLSYDGNNAAIRSSVHYSQGYNNAFWNGSQMVYGDGDGQTFIPLSGGIDVVAHELTHAVTDYTAGLIYQNESGAINEAISDIFGTLVEFYANKNPDWEIGEDVYTPGISGDSLRSMSDPAKYGDPDHYSKRYTGTQDNGGVHINSGIINKAAYLISQGGTHYGVSVVGIGRDKLGKIFYRALTQYLTPTSNFSQLRAAAVQSATDLYGSTSQEVASVKQAFDAVGVK | – | – | – | – | – | – | – | the polypeptide brushes were rapidly cleaved within 1 hour under the investigated conditions |
